Source: article PMC7954794, “Protein context shapes the specificity of SH3 domain-mediated interactions in vivo” (Nature Communications, 2021)

Key:
Format in all cases: cell-based, Saccharomyces cerevisiae
[1] = tested on: 575 putative partners (preys) of 22 WT SH3-containing proteins; test: DHFR-PCA on solid medium, WT and SH3-deleted baits (Fig. 1B); parameters: key to Score: 0: SH3-independent; 1: SH3-dependent PPIs; 2: SH3-inhibited PPIs; details: for medrep (log2 median colony size normalized to plate background, PCA score): label = prey; for Ratio (SH3-deleted/WT medrep): only significant differences shown, PPIs completely lost have a ratio of 0.1, gained PPIs 2.5
How it was run: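 In S. cerevisiae, 22 SH3-containing baits fused genomically to DHFR F[1,2], either WT or with each SH3 replaced via CRISPR by a poly-Gly/Ser linker, screened against 575 DHFR F[3] preys plus 40 negative controls in 1536 arrays, preys duplicated at randomized positions.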

ABP1 = test: DHFR-PCA on solid medium, bait ABP1 (Fig. 1B); details: bait ABP1, label = prey; 2-4 replicates
From the text: (§1) Supplement 41467_2021_21873_MOESM8_ESM.xlsx, sheet "Fig1B" | column: medsize; medrep; Ratio; Score

BBC1 = test: DHFR-PCA on solid medium, bait BBC1 (Fig. 1B); details: bait BBC1, label = prey; for medrep (log2 median colony size normalized to plate background, PCA score): 2-4 replicates; for Ratio (SH3-deleted/WT medrep): only significant differences showed, PPIs completely lost have a ratio of 0.1 and the gained PPIs 2.5
From the text: as §1

[2] = bait SLA1-2, DHFR-PCA, Replicates 4 (2 for YCR009C, YDR388W)
[3] = bait SLA1-3, DHFR-PCA, Replicates 4 (2 for YCR009C, YDR388W, YIL033C)

B1: YIR003W (protein, UniProt P40563 1-679, looked up)
Altered inheritance of …: MPSEVTPKVPERPSRRKTSELFPLSGSESGDIKANSEPPTPAGTPNVPTRRPILKAKTMTSFESGMDQESLPKVPLQRPVRRSTTEELNNVMNNTSKELEEIESLISKHNIHNVSRKKSPTSVEEGKVAAIHQNGQRSASDNKTSTNPSPLEKNEHEGAEGNESAISPSNLVNKSNNEVTEHSDSEDLTEKQKVHAALDNEAGDRSHFEEKLIPGDMKVQVDVSKDVEEGSLNALPPSGITESDDKAEKFTKHPESSLEELQKHQEQQEEKIFQNPTDEESTTSLNEKQEGKDNMEVNSQPQGPSDTETVIAATSSNVPSQIASEEENDVPVIPRSRPKKDFEAHVQKEELPNTQEKRVSEECDSTLISTEEESKIPKIPSERPKRRAPPPVPKKPSSRIAAFQEMLQKQQQQDLHNNGNSSATTASADIAKKHTDSSITSDTTKADFTSKLNGLFALPGMVNPGQLPPSLEKKLSSPDTESKLGPQDQSQAKTGPLGGTRRGRGPRGRKLPSKVASVEKIEEDDNTNKIEIFNNWNVSSSFSKEKVLIDTTPGEQAERALDEKSKSIPEEQREQSPNKMEAALCPFELDEKEKLPANAESDPLSQLPQTNAVGNRKAISEESLSPSEAIANRDQNDTTEIQEQQMEDQMEVDMERELSGGYEDVDSALHSEEASFHSL
B1 was tested, and the “medrep (log2 median colony size normalized to plate background, PCA score)” value [1, 2] was 2.274, the Score ([1]; bait SLA1-2, label = prey) was 1 and the “Ratio (SH3-deleted/WT medrep)” value ([1]; bait SLA1-2, label = prey) was 0.1. The “medrep (log2 median colony size normalized to plate background, PCA score)” value [1, 3] was 2.274, the Score ([1]; bait SLA1-3, label = prey) was 0 and the “medrep (log2 median colony size normalized to plate background, PCA score)” value (ABP1) was 4.768. The “medrep (log2 median colony size normalized to plate background, PCA score)” value (BBC1) was 5.119.

B2: YLR196W (protein, UniProt P21304 1-576, looked up)
Periodic tryptophan protein 1: MISATNWVPRGFSSEFPEKYVLDDEEVERINQLAQLNLDDAKATLEEAEGESGVEDDAATGSSNKLKDQLDIDDDLKEYNLEEYDDEEIADNEGGKDVSMFPGLSNDSDVKFHEGEKGEDPYISLPNQEDSQEEKQELQVYPSDNLVLAARTEDDVSYLDIYVYDDGAGFHSSDIPVEEGDEADPDVARGLVRDPALYVHHDLMLPAFPLCVEWLDYKVGSNSEEAANYAAIGTFDPQIEIWNLDCVDKAFPDMILGEPLDNSMVSLKSKKKKKKSKTGHITTHHTDAVLSMAHNKYFRSVLASTSADHTVKLWDLNSGNAARSLASIHSNKNVSSSEWHMLNGSILLTGGYDSRVALTDVRISDESQMSKYWSAMAGEEIETVTFASENIILCGTDSGNVYSFDIRNNENRKPVWTLKAHDAGISTLCSNKFIPGMMSTGAMGEKTVKLWKFPLDDATNTKGPSMVLSRDFDVGNVLTSSFAPDIEVAGTMVIGGVNKVLKLWDVFTNRSVRKSFKSELENVQARAKEEAQKIGKSSRIARKYTSNDNPDTVITIDDQGEDEEEREGGDEHDDMA
For B2, the “medrep (log2 median colony size normalized to plate background, PCA score)” value (ABP1) was 3.732, the “medrep (log2 median colony size normalized to plate background, PCA score)” value (BBC1) was 2.428 and the “Ratio (SH3-deleted/WT medrep)” value (BBC1) was 0.1.

B3: YOR042W (protein, UniProt Q08412 1-411, looked up)
Ubiquitin-binding protein CUE5: MEEKEGIKDSSLLEKSNVPESINEDISKTTDVDLNSDGKKDNDTSAKDGTPKVEEKVNKSSGIDEDEVVTPAEDAKEEEEEHPPLPARRKSEEEPSKENPILQELKDAFPNLEEKYIKAVIIASQGVLSPAFNALLFLSDPESGKDIELPTQPVRKNPEAPARRRQTQLEQDELLARQLDEQFNSSHSRRRNRDRATRSMHEQRRRRHNPNEREQHHEDSEEEDSWSQFVEKDLPELTDRAGRSLQDTANKVSNWISDAYRRNFASGNEQNDNQHGHQDQQEWEPEIVDLSQGGKNSRPQQPERRRFNSFGVQVGDDSLESHGITLHNEDGFEDDEDVPPQLPTRTKSGESTGKVVAETTYIDTPDTETKKKWQPLPPEPLDTTPTKVNAVSRNKKNPDEDEFLINSDDEM
For B3, the “medrep (log2 median colony size normalized to plate background, PCA score)” value [1, 2] was 2.528, the Score ([1]; bait SLA1-2, label = prey) was 1 and the “Ratio (SH3-deleted/WT medrep)” value ([1]; bait SLA1-2, label = prey) was 0.1. For the same molecule, the “medrep (log2 median colony size normalized to plate background, PCA score)” value [1, 3] was 2.528, the Score ([1]; bait SLA1-3, label = prey) was 0 and the “medrep (log2 median colony size normalized to plate background, PCA score)” value (ABP1) was 4.057. The “medrep (log2 median colony size normalized to plate background, PCA score)” value (BBC1) was 1.718 and the “Ratio (SH3-deleted/WT medrep)” value (BBC1) was 0.1.
